The text below walks through data of US20100028952A1, “FERMENTATION AND PURIFICATION OF ACTINOMADURA CHROMOPROTEIN AND RELATED SPECIES” (WYETH, priority 2006, published 2010).

The test system of data set [1] is E. coli BR513-80 SOS response. Briefly: Biochemical induction assay (BIA). The conditions noted are these: purified, approximately 90% pure. It is filed as cell-based. An excerpt: The biochemical induction assay identifies DNA damaging agents which induce the SOS response in E. coli BR513-80. BR513-80 contains a translational fusion of the λ PL promoter and the lacZ gene. The λ PL promoter, activated as part of the SOS response after exposure to DNA damaging agents, drives the synthesis of β-galactosidase. β-galactosidase activity is detected by the cleavage of the 6-bromo-2-naphthyl-β-D-galactopyranoside (BNG) which reacts with Fast Blue RR salt to produce a red/purple color. […]
A BR513-80 overnight culture is diluted 1:20 in LBE broth or equivalent, and the absorbance of the diluted culture is measured at 600 nm. The absorbance of the undiluted culture is calculated, and 5.7 is divided by this value to obtain the volume (in mL) of culture to use as an inoculum per 40 mL soft agar. […] The calculated culture volume is swirled in soft agar, poured evenly over the base layer (40 ml per Nunc BioAssay plate, or 20 mL per 150 mm petri dish), and allowed to solidify for at least 10-15 minutes. […]
A dye/substrate overlay is prepared by dissolving 87 mg Fast Blue RR salt and 13 mg BNG in 2 mL DMSO and mixing with 40 mL melted 1% soft agar. […] The induction response is scored after 15-20 minutes at room temperature or after 10 min. at about 37° C. […]

A short description of data set [2]: Toxicity of the chromoprotein in nude mice. Format: in vivo. The settings on record: except for bone marrow suppression. How it is done: 21G792 chromoprotein is well-tolerated in nude mice. Specifically, saline control vehicle or the chromoprotein in various doses was administered intravenously to six nude mice on days 1, 5, and 9.
For another data set, the system named is MCF-7. As to the kind of experiment: Potency against human tumor cell lines. Format: cell-based. The settings on record: MCF-7, Breast.
The subject of another data set is MDA-MB-361. Briefly: Potency against human tumor cell lines. Format: cell-based. The conditions noted are these: MDA-MB-361, Breast.
The next data set deals with Supercoiled φX174 DNA. Briefly: DNA cleavage assay, gel electrophoresis. It is filed as biochemical. The method, then:
Supercoiled φX174 DNA was incubated with various concentrations of the 21G792 chromoprotein and analyzed by gel electrophoresis. […] Nicked refers to single strand breaks in the DNA and linear refers to double strand breaks.

A further data set concerns SW620. Briefly: Potency against human tumor cell lines. Format: cell-based. The conditions noted are these: SW620, Colon.
Another data set deals with LoVo. As to the kind of experiment: Potency against human tumor cell lines. It is filed as cell-based. The settings on record: Colon.
Data set [3] deals with histones H1, H2A, H2B, H3, and H4. As to the kind of experiment: Specificity of protein digestion by the chromoprotein. Format: biochemical. The conditions noted are these: myelin basic protein, bovine serum albumin.
For the next data set, the system named is Histone H1. As to the kind of experiment: Digestion of histone H1, SDS-PAGE. Format: biochemical. The method, then:
Histone H1 was incubated with various concentrations of the chromoprotein in 50 mM Tris-Cl, pH 7.5 overnight at 37° C. (FIG. 29) Digestions of histone were assessed by SDS-polyacrylamide gel electrophoresis (SDS-PAGE), followed by staining of the gel with GelCode Blue (Pierce Biotechnology, Inc, Rockford, Ill.).

A further data set deals with HN5. As to the kind of experiment: Potency against human tumor cell lines. Format: cell-based. The conditions noted are these: HN5, Head & Neck.
A further data set relates to histone H1 in HeLa cells. As to the kind of experiment: Digestion of histone H1 in HeLa cells, immunoblot. It is filed as cell-based. The settings on record: HeLa cells incubated overnight at 37° C.; anti-histone H1 immunoblot. The method, then:
To study whether the digestion of histones by the chromoprotein occurs in intact cells, HeLa cells were incubated with compounds overnight at 37° C. Cell lysates were analysed by SDS-PAGE and protein immunoblotting using anti-histone H1 antibodies (Santa Cruz Biotechnologies). […] This activity can contribute to antitumor effects by digesting histones in chromatin, making the DNA more accessible for cleavage. This appears to be a unique activity of the chromoprotein enediynes.

A further data set concerns BT474. As to the kind of experiment: Potency against human tumor cell lines. Format: cell-based. The conditions noted are these: BT474, Breast.
Another data set concerns p21−/− cells. Briefly: In vitro anti-tumor activity, isogenic pair of cell lines. Format: cell-based. The conditions noted are these: p21−/− isogenic cell line; Mean + SD, n = 3. An excerpt: (§1) The p53/p21 checkpoint monitors the integrity of the genome and blocks cell cycle progression in the event of DNA damage. Disruption of the checkpoint by deletion of the p21 gene results in failure to arrest in response to DNA damage ultimately leading to cell death through apoptosis. Since loss of this checkpoint is a hallmark of cancer cells, an isogenic pair of cell lines, wherein one pair of the cell line (p21+/+) has an intact p21 gene and one member (p21−/−) has a deletion in the p21 gene, can be used to screen for potential anti-tumor compounds by identifying molecules that preferentially induce apoptosis in p21-deficient cells.
(§2) The Actinomadura sp. 21G792 chromoprotein was added to an isogenic pair of cell lines (p21+/+ and p21−/−).

A further data set deals with p21+/+ cells. The description is as above. Format: cell-based. The conditions noted are these: p21+/+ isogenic cell line; Mean + SD, n = 3.
Description: as §1, §2

B1: Actinomadura sp. 21G792 chromoprotein: non-covalent complex of an apoprotein and a chromophore comprising a nine-membered enediyne, produced by Actinomadura sp. 21G792 (NRRL 30778) (protein)
chain: DTVTVNYDCVGYPSDIAVTIDAPATAGVGDTATFEVSSVVTTGAPQDLPAGEVVTDMAIVVGGAQSGTITASGLTNEATPAGQPVNMVGGEAQITFTSAGSVTFTPSTTTQVDNGAQCTVVGEAPVGATTVVS
For the molecule B1, in data set [1], the BIA activity entry is on record as “BIA active”. For the same molecule, the “tolerability in nude mice” value in data set [2] is “well-tolerated”. Further, the IC50 in the data set on MCF-7 came to 2 µg/mL; in the data set on MDA-MB-361 it was 5 µg/mL; with SW620, 2 µg/mL; in the data set on LoVo, 2 µg/mL; in the data set with HN5 it was 4 µg/mL; in the data set with BT474 it was 47 µg/mL. In addition, the IC50 was 7 + 2 μg/ml with p21−/− cells and 90 + 32 μg/ml with p21+/+ cells. In addition, the “requirement of a reducing agent for DNA cleavage” value with Supercoiled φX174 DNA (dithiothreitol, DTT) is reported as “did not require a reducing agent”. Further, the DNA cleavage result in the data set on Supercoiled φX174 DNA (various concentrations, reaction progressed over 24 hours) is “induced single strand breaks and double strand breaks”. Besides, in data set [3], the “cleavage of other proteins” value was “cleaves other basic proteins such as myelin basic protein, but not neutral/acidic proteins such as bovine serum albumin”. Moreover, the “effect of free radical scavengers and protease inhibitors on digestion of histones” value in the data set with Histone H1 (30 mM glutathione or N-acetyl cysteine, protease inhibitors) is “inhibited by the addition of free radical scavengers, 30 mM glutathione or N-acetyl cysteine (not shown), but not by protease inhibitors”. For the same molecule, the “digestion of histone H1” value with Histone H1 (50 mM Tris-Cl, pH 7.5 overnight at 37° C.) is on record as “digestion of Histone H1”. For the same molecule, the “effect of DNA on digestion of histone H1” value in the data set with Histone H1 (addition of DNA) is “inhibited by addition of DNA”. Also, in the data set with histone H1 in HeLa cells, the “histone H1 in cells” value is on record as “reduced histone H1 in cells”.
